Among the data in paper PMC3572039 are binding values, retold here.

The series has as its target T1, MBP-Δ116 (truncated XydR response regulator) del1-116 (Clostridium cellulolyticum H10 (ATCC 35319/DSM 5812)) (UniProt B8I0K9).
T1 sequence: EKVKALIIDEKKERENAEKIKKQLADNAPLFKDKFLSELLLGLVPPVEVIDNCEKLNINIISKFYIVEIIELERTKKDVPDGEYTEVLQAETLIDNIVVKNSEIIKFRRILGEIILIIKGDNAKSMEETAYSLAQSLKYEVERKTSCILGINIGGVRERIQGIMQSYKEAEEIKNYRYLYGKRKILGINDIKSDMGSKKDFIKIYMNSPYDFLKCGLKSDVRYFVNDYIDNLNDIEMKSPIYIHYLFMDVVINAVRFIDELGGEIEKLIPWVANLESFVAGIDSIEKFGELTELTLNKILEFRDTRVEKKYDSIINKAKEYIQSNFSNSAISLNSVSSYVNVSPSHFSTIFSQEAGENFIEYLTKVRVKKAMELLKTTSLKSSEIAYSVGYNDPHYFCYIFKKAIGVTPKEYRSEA
In words: EMSA. As to conditions: 10 mM Tris pH 7.5, 150 mM KCl, 1 mM DTT, 30 ng/uL salmon sperm DNA, 0.1 ug/uL BSA, 0.05% NP-40, 2.5% glycerol, 20 C, 20 min; 20 fmol probe; 5% native PAGE. (In general: A gel shift assay detects complexes by their altered migration in electrophoresis.)

In the case of “CCTTCTTAATCAGTTTCTAATTGCCAAAGAATAAGAGTAAAATGATTAGTAAATCTATATTCATTATAGAATGTAAACTGTTTCCAGCTCAATATAAATCCTTTTGACTTTTGTATATTAATTTTGTAAAATATCATTTTCAGTGTATTGGAGCAACATAAAAAAAGCAGCTGTAGAAAATCCAGCTGCTTTATACTTGCTATTTGTACAATTTTAGAATTACTTGTTAATACCTTATTCCGCAGC (double strand) [R6 (upstream Ccel_1656)]”, the binding entry is “binds”. As to “GTATATAAGGTATTGACTTTCTTTGGCAGATGTAAGAATAGGAGTAAAATGAAAAGAACGATTAGTACATATTAACTATGTTAAAAATATTATAGAATGTAAATGGTTTCCATTTCAATATAAATCTTTTTGGTATTGGTATAAATTTTTGAATTCATTTTATCATATTTTGAAAAATTAGTAAATTATTTATTTTATTTTACACTTTTGTATATATTTTTTTAAATTTGTTAAGATATATTTTGCTATGCTTCACTCCTATACTCCTTTGG (double strand) [R3 (upstream Ccel_1229)]”, the binding entry was “binds”.
